Measurements reported in FireProtDB (doi:10.1021/bi9910169).

B1: Lysozyme C, P61626 (parent)
chain: MKALIVLGLVLLSVTVQGKVFERCELARTLKRLGMDGYRGISLANWMCLAKWESGYNTRATNYNAGDRSTDYGIFQINSRYWCNDGKTPGAVNACHLSCSALLQDNIADAVACAKRVVRDPQGIRAWVAWRNRCQNRDVRQYVQGCGV

Variants of: B1
Conditions: Homo sapiens; pH 2.5; Thermal; DSC; glycine-HCl 0.05 M; reversible: yes; structure 1LZ1; whole UniProt chain shown

Point of comparison: MKALIVLGLVLLSVTVQGKVFERCELARTLKRLGMDGYRGISLANWMCLAKWESGYNARATNYNAGDRSTDYGIFQINSRYWCNDGKTPGAVNACHLSCSALLQDNIADAVACAKRVVRDPQGIRAWVAWRNRCQNRDVRQYVQGCGV [T58A], Tm 56.6 °C. Against it:
- MKALIVLGLVLLSVTVQGKVFERCELARTLKRLGMDGYRGISLANWMCLAKWESGYNTRATNYNAGDRSTDYGIFQINSRYWCNDGKVPGAVNACHLSCSALLQDNIADAVACAKRVVRDPQGIRAWVAWRNRCQNRDVRQYVQGCGV [T88V] — higher, 59.5 °C

Point of comparison: MKALIVLGLVLLSVTVQGKVFERCELARTLKRLGMDGYRGISLANWMCLAKWESGYNARATNYNAGDRSTDYGIFQINSRYWCNDGKTPGAVNACHLSCSALLQDNIADAVACAKRVVRDPQGIRAWVAWRNRCQNRDVRQYVQGCGV [T58A], “unfolding enthalpy (calorimetric)” value 97.5 kcal/mol. Against it:
- MKALIVLGLVLLSVTVQGKVFERCELARTLKRLGMDGYRGISLANWMCLAKWESGYNTRATNYNAGDRSTDYGIFQINSRYWCNDGKVPGAVNACHLSCSALLQDNIADAVACAKRVVRDPQGIRAWVAWRNRCQNRDVRQYVQGCGV [T88V] — higher, 102 kcal/mol

Point of comparison: MKALIVLGLVLLSVTVQGKVFERCELARTLKRLGMDGYRGISLANWMCLAKWESGYNTRATNYNAGDRSTDYGIFQINSRYWCNDGKVPGAVNACHLSCSALLQDNIADAVACAKRVVRDPQGIRAWVAWRNRCQNRDVRQYVQGCGV [T88V], “unfolding enthalpy (van 't Hoff)” value 106 kcal/mol. Against it:
- MKALIVLGLVLLSVTVQGKVFERCELARTLKRLGMDGYRGISLANWMCLAKWESGYNARATNYNAGDRSTDYGIFQINSRYWCNDGKTPGAVNACHLSCSALLQDNIADAVACAKRVVRDPQGIRAWVAWRNRCQNRDVRQYVQGCGV [T58A] — lower, 103 kcal/mol

Same assay, conditions: Homo sapiens; pH 2.7; Thermal; DSC; glycine-HCl 0.05 M; reversible: yes; structure 1LZ1; whole UniProt chain shown

Point of comparison: MKALIVLGLVLLSVTVQGKVFERCELARTLKRLGMDGYRGISLANWMCLAKWESGYNARATNYNAGDRSTDYGIFQINSRYWCNDGKTPGAVNACHLSCSALLQDNIADAVACAKRVVRDPQGIRAWVAWRNRCQNRDVRQYVQGCGV [T58A], Tm 59.4 °C. Against it:
- MKALIVLGLVLLSVTVQGKVFERCELARTLKRLGMDGYRGISLANWMCLAKWESGYNTRATNYNAGDRSTDYGIFQINSRYWCNDGKVPGAVNACHLSCSALLQDNIADAVACAKRVVRDPQGIRAWVAWRNRCQNRDVRQYVQGCGV [T88V] — higher, 62.6 °C

Point of comparison: MKALIVLGLVLLSVTVQGKVFERCELARTLKRLGMDGYRGISLANWMCLAKWESGYNARATNYNAGDRSTDYGIFQINSRYWCNDGKTPGAVNACHLSCSALLQDNIADAVACAKRVVRDPQGIRAWVAWRNRCQNRDVRQYVQGCGV [T58A], “unfolding enthalpy (calorimetric)” value 99.9 kcal/mol. Against it:
- MKALIVLGLVLLSVTVQGKVFERCELARTLKRLGMDGYRGISLANWMCLAKWESGYNTRATNYNAGDRSTDYGIFQINSRYWCNDGKVPGAVNACHLSCSALLQDNIADAVACAKRVVRDPQGIRAWVAWRNRCQNRDVRQYVQGCGV [T88V] — higher, 107 kcal/mol

Point of comparison: MKALIVLGLVLLSVTVQGKVFERCELARTLKRLGMDGYRGISLANWMCLAKWESGYNTRATNYNAGDRSTDYGIFQINSRYWCNDGKVPGAVNACHLSCSALLQDNIADAVACAKRVVRDPQGIRAWVAWRNRCQNRDVRQYVQGCGV [T88V], “unfolding enthalpy (van 't Hoff)” value 111 kcal/mol. Against it:
- MKALIVLGLVLLSVTVQGKVFERCELARTLKRLGMDGYRGISLANWMCLAKWESGYNARATNYNAGDRSTDYGIFQINSRYWCNDGKTPGAVNACHLSCSALLQDNIADAVACAKRVVRDPQGIRAWVAWRNRCQNRDVRQYVQGCGV [T58A] — lower, 102 kcal/mol

Same assay, conditions: Homo sapiens; pH 2.85; Thermal; DSC; glycine-HCl 0.05 M; reversible: yes; structure 1LZ1; whole UniProt chain shown

Point of comparison: MKALIVLGLVLLSVTVQGKVFERCELARTLKRLGMDGYRGISLANWMCLAKWESGYNTRATNYNAGDRSTDYGIFQINSRYWCNDGKVPGAVNACHLSCSALLQDNIADAVACAKRVVRDPQGIRAWVAWRNRCQNRDVRQYVQGCGV [T88V], Tm 65.3 °C. Against it:
- MKALIVLGLVLLSVTVQGKVFERCELARTLKRLGMDGYRGISLANWMCLAKWESGYNARATNYNAGDRSTDYGIFQINSRYWCNDGKTPGAVNACHLSCSALLQDNIADAVACAKRVVRDPQGIRAWVAWRNRCQNRDVRQYVQGCGV [T58A] — lower, 63.3 °C

Point of comparison: MKALIVLGLVLLSVTVQGKVFERCELARTLKRLGMDGYRGISLANWMCLAKWESGYNARATNYNAGDRSTDYGIFQINSRYWCNDGKTPGAVNACHLSCSALLQDNIADAVACAKRVVRDPQGIRAWVAWRNRCQNRDVRQYVQGCGV [T58A], “unfolding enthalpy (calorimetric)” value 107 kcal/mol. Against it:
- MKALIVLGLVLLSVTVQGKVFERCELARTLKRLGMDGYRGISLANWMCLAKWESGYNTRATNYNAGDRSTDYGIFQINSRYWCNDGKVPGAVNACHLSCSALLQDNIADAVACAKRVVRDPQGIRAWVAWRNRCQNRDVRQYVQGCGV [T88V] — higher, 112 kcal/mol

Point of comparison: MKALIVLGLVLLSVTVQGKVFERCELARTLKRLGMDGYRGISLANWMCLAKWESGYNARATNYNAGDRSTDYGIFQINSRYWCNDGKTPGAVNACHLSCSALLQDNIADAVACAKRVVRDPQGIRAWVAWRNRCQNRDVRQYVQGCGV [T58A], “unfolding enthalpy (van 't Hoff)” value 114 kcal/mol. Against it:
- MKALIVLGLVLLSVTVQGKVFERCELARTLKRLGMDGYRGISLANWMCLAKWESGYNTRATNYNAGDRSTDYGIFQINSRYWCNDGKVPGAVNACHLSCSALLQDNIADAVACAKRVVRDPQGIRAWVAWRNRCQNRDVRQYVQGCGV [T88V] — higher, 117 kcal/mol

Same assay, conditions: Homo sapiens; pH 3; Thermal; DSC; glycine-HCl 0.05 M; reversible: yes; structure 1LZ1; whole UniProt chain shown

Point of comparison: MKALIVLGLVLLSVTVQGKVFERCELARTLKRLGMDGYRGISLANWMCLAKWESGYNTRATNYNAGDRSTDYGIFQINSRYWCNDGKVPGAVNACHLSCSALLQDNIADAVACAKRVVRDPQGIRAWVAWRNRCQNRDVRQYVQGCGV [T88V], Tm 67.6 °C. Against it:
- MKALIVLGLVLLSVTVQGKVFERCELARTLKRLGMDGYRGISLANWMCLAKWESGYNARATNYNAGDRSTDYGIFQINSRYWCNDGKTPGAVNACHLSCSALLQDNIADAVACAKRVVRDPQGIRAWVAWRNRCQNRDVRQYVQGCGV [T58A] — lower, 66.5 °C

Point of comparison: MKALIVLGLVLLSVTVQGKVFERCELARTLKRLGMDGYRGISLANWMCLAKWESGYNARATNYNAGDRSTDYGIFQINSRYWCNDGKTPGAVNACHLSCSALLQDNIADAVACAKRVVRDPQGIRAWVAWRNRCQNRDVRQYVQGCGV [T58A], “unfolding enthalpy (calorimetric)” value 114 kcal/mol. Against it:
- MKALIVLGLVLLSVTVQGKVFERCELARTLKRLGMDGYRGISLANWMCLAKWESGYNTRATNYNAGDRSTDYGIFQINSRYWCNDGKVPGAVNACHLSCSALLQDNIADAVACAKRVVRDPQGIRAWVAWRNRCQNRDVRQYVQGCGV [T88V] — higher, 115 kcal/mol

Point of comparison: MKALIVLGLVLLSVTVQGKVFERCELARTLKRLGMDGYRGISLANWMCLAKWESGYNTRATNYNAGDRSTDYGIFQINSRYWCNDGKVPGAVNACHLSCSALLQDNIADAVACAKRVVRDPQGIRAWVAWRNRCQNRDVRQYVQGCGV [T88V], “unfolding enthalpy (van 't Hoff)” value 121 kcal/mol. Against it:
- MKALIVLGLVLLSVTVQGKVFERCELARTLKRLGMDGYRGISLANWMCLAKWESGYNARATNYNAGDRSTDYGIFQINSRYWCNDGKTPGAVNACHLSCSALLQDNIADAVACAKRVVRDPQGIRAWVAWRNRCQNRDVRQYVQGCGV [T58A] — lower, 117 kcal/mol

Same assay, conditions: Homo sapiens; pH 3.1; Thermal; DSC; glycine-HCl 0.05 M; reversible: yes; structure 1LZ1; whole UniProt chain shown

Point of comparison: MKALIVLGLVLLSVTVQGKVFERCELARTLKRLGMDGYRGISLANWMCLAKWESGYNTRATNYNAGDRSTDYGIFQINSRYWCNDGKVPGAVNACHLSCSALLQDNIADAVACAKRVVRDPQGIRAWVAWRNRCQNRDVRQYVQGCGV [T88V], Tm 70.3 °C. Against it:
- MKALIVLGLVLLSVTVQGKVFERCELARTLKRLGMDGYRGISLANWMCLAKWESGYNARATNYNAGDRSTDYGIFQINSRYWCNDGKTPGAVNACHLSCSALLQDNIADAVACAKRVVRDPQGIRAWVAWRNRCQNRDVRQYVQGCGV [T58A] — lower, 68.6 °C

Point of comparison: MKALIVLGLVLLSVTVQGKVFERCELARTLKRLGMDGYRGISLANWMCLAKWESGYNTRATNYNAGDRSTDYGIFQINSRYWCNDGKVPGAVNACHLSCSALLQDNIADAVACAKRVVRDPQGIRAWVAWRNRCQNRDVRQYVQGCGV [T88V], “unfolding enthalpy (calorimetric)” value 119 kcal/mol. Against it:
- MKALIVLGLVLLSVTVQGKVFERCELARTLKRLGMDGYRGISLANWMCLAKWESGYNARATNYNAGDRSTDYGIFQINSRYWCNDGKTPGAVNACHLSCSALLQDNIADAVACAKRVVRDPQGIRAWVAWRNRCQNRDVRQYVQGCGV [T58A] — lower, 117 kcal/mol

Point of comparison: MKALIVLGLVLLSVTVQGKVFERCELARTLKRLGMDGYRGISLANWMCLAKWESGYNTRATNYNAGDRSTDYGIFQINSRYWCNDGKVPGAVNACHLSCSALLQDNIADAVACAKRVVRDPQGIRAWVAWRNRCQNRDVRQYVQGCGV [T88V], “unfolding enthalpy (van 't Hoff)” value 123 kcal/mol. Against it:
- MKALIVLGLVLLSVTVQGKVFERCELARTLKRLGMDGYRGISLANWMCLAKWESGYNARATNYNAGDRSTDYGIFQINSRYWCNDGKTPGAVNACHLSCSALLQDNIADAVACAKRVVRDPQGIRAWVAWRNRCQNRDVRQYVQGCGV [T58A] — lower, 121 kcal/mol
